assay: yeast display, Sf9 membrane polyspecificity reagent, FACS + sequencing; frameworks hold sequencing errors
In short: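 Galactose induction of a Saccharomyces cerevisiae BJ5465 synthetic nanobody display library ran 36–48 hours. The cells were then stained for 1 hour at 4 °C with 10% biotinylated, detergent-solubilized Sf9 membrane reagent, pulled down on streptavidin microbeads and FACS-sorted into low and high (top ~1%) gates on expression and reagent-binding fluorescence. Labels for polyreactivity follow the gate of origin.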

Row | Sequence | polyreactivity (PSR sort gate)
1 | QVQLVESGGGLVQAGGSLRLSCAASGIILPYYVMGSYRPAPGKERELVAAISSGGRTYYADSVKGRFTISRDNAKNTVYLQMNSLKPEDTAVYYCNAYFTGKWYDYWVQGTQVTVSS | high polyreactivity
2 | QVQLVESGGGLVQAGGSLRLSCAASGIILRRYAMGWYRQAPGKERELVARISYRGGRTNYADSVKGRFTISRDNAKNTFYLEMNSLKPEDTAVYYCDAVDWYYHEGTAYNYWGQGTQVTVSS | high polyreactivity
3 | QVQLVESGGGLVQAGGSLRLSCAASGIILSENDMGWYRQAPGKERELVAAITSSGSTSYADSVKGRFTISRDNAKNTVYLQMNSLKPEDTAVYYCAADYLNPFPPYQYWKQSYDYWGQGTQVTVSS | low polyreactivity
4 | QVQLVESGGGLVQAGGSLRLSCAASGIILYTYAMGWYRQAPGKEREFVAGIRWSGSSTYYADSVKGRFTISRDNAKNTVYLQMNSLKPEDTAVYYCATGQPYGPLYSLGYGYWGQGTQVTVSS | high polyreactivity
5 | QVQLVESGGGLVQAGGSLRLSCAASGIILYYNALGWYRQAPGKERELLAAITTSGVSTYDADSVKGRFTISRDNAKNTVYLQMKSLKPEDTAVYYCNARARARYFYEMDYWGQGTQVTVSS | low polyreactivity
6 | QVQLVESGGGLVQAGGSLRLSCAASGIISGDYAMGWYRQAPGKERELVARITSGDSTNYADSVKGRFTISRDNAKNTVYLQMNSLKPEDTAVYYCAAKRYVFQNDYWGQGTQVTVSS | low polyreactivity
7 | QVQLVESGGGLVQAGGSLRLSCAASGIISYKNVMGWYRQAPGKERELVAAISGRGGSTYYADSVKGRFTISRDNAKNTVYLQMNSLKPEDTAVYYCAKYPGISGYNYWGQGTQVTVSS | high polyreactivity
8 | QVQLVESGGGLVQAGGSLRLSCAASGIISYLNAMGWYRQAPGKERELVAAITGGGRTNYADSVKGRFTFSRDNAKNTVYLQMNSLKPEDTAVYYCNAYSSNYRYWARRGRPYNYWGQGTQVTVSS | high polyreactivity
9 | QVQLVESGGGLVQAGGSLRLSCAASGIIVAWYAMGWYRQAPGKERELVARISSGASPNYADSVKGRFTISRDNAKNTVYLQMNSLKPEDTSVYYCAAVSHPFRRSRYDYWRQGTQVTVSS | high polyreactivity
10 | QVQLVESGGGLVQAGGSLRLSCAASGIIVSYYAMGWYRQAPGKERELVAAITSGGSTNYADSVKGRFTISRDNAKITVYLQMNSLKPEDTAVYYCAAERGDTAYRKYDYWGQGTQVTVSS | low polyreactivity
11 | QVQLVESGGGLVQAGGSLRLSCAASGIIYNPNAMGWYRQAPGKERELVAVISISDSTNYADSVKGRFTISRDNAKNTVYLQMNSLKPEDTAVYDCATASAGTLSVTYYHWYDDWGQGTQVTVSS | low polyreactivity
12 | QVQLVESGGGLVQAGGSLRLSCAASGILFSAHAMGWYRQAPGKERELVAAISKSGSRTYYADSVKGRFTISRDNAKNTVYLQMNSLKPEDTAVYYCNAVTYSRRYAYYYWGQGTQVTVSS | high polyreactivity
13 | QVQLVESGGGLVQAGGSLRLSCAASGINLNNYPLGSYRQAPGKDRELVAAITSSGTRTYYADSVKGRFTISRDNAKINVYLQMNSLKPEDTAVYYCAAQPVYDLWGQGTQVTVSS | high polyreactivity
14 | QVQLVESGGGLVQAGGSLRLSCAASGINLRRYAMGWYRQAPGKERELVARISYRGGRTNYADSVKGRFTISRDNAKNTVYLQMNSLKPEDTAVYYCAAVAWYYHEGTAYNYWGQGTQVTVSS | high polyreactivity
15 | QVQLVESGGGLVQAGGSLRLSCAASGIPFEGYAMGWYRQAPGKERELVAAIRSSGTSTYYADSVKGRFTISRDTAKNTVYLQMNSLKPEDTAVYYCNRARSSSRYDYWGQGTQVTVSS | low polyreactivity
16 | QVQLVESGGGLVQAGGSLRLSCAASGIPFKGYAMGWYRQAPGQERELVAASNSRGGTYADSVKGRFTISRDNAKNTVYLQRNSLKPEDTAVYYCGVSAVRPLPLDSGYDYWGQGSQVTVSS | low polyreactivity
17 | QVQLVESGGGLVQAGGSLRLSCAASGIPRNTMGWYRQAPGKERELVASISTSGGSTYYADSVKGRFTISRDNAKNTVYLPMNSLKPEDTAVYYCAKKGYASRYFIYDYWGQGTQVTVSS | low polyreactivity
18 | QVQLVESGGGLVQAGGSLRLSCAASGIRFAQYTMGGYRQAHGKESELVAAINRNGGSTYYADSVKGRFTISRDNAKNTVYLQMNSLKPEDTPVYYCNADALGFRYDYWGQGTQVTVSS | low polyreactivity
19 | QVQLVESGGGLVQAGGSLRLSCAASGISIRSYAMGWYRQAPGKERELVAAIRSGGSTSYADSVKGRFTISRDNAKNTVYLLMNSLKPEDTAVYYCAAGGYVPLPDITFWKFGYWGQGTQVNVSS | low polyreactivity
20 | QVQLVESGGGLVQAGGSLRLSCAASGITFADNAMGWYRQAPGKERELVASISKSSGSTYYADSVKGRFTISRDNAKNTVYLQMNSLKPEDTAVYYCATDPYVRRSPSWYDYWGQGTQVTVSS | low polyreactivity
21 | QVQLVESGGGLVQAGGSLRLSCAASGITFAFYAMGWYRQAPGKERELVAAISWSGTRTYYADSVKGRFTISRDNAKNTVYLQMNSLKPEDSAVYYCAADYQAGDKLYDYWGQGTQVTVSS | low polyreactivity

Row | Sequence | polyreactivity (PSR sort gate)
22 | QVQLVESGGGLVQAGGSLRLSCAASGITFAFYDMGWYRQAPGKERELVAAISYSGGGTYYADSVKGRFTISRDNAKNTVYLQMNSLKPEDTAVYYCAADPKTHPLFGEDYWGQGTQVTVSS | low polyreactivity
23 | QVQLVESGGGLVQAGGSLRLSCAASGITFAGYAMGWYRQAPGKERELVAAITRGGGITYYADSVKGRFTISRDNAKNTVYLQMNSLKPEDTPVDYCNAVVTSAAGYFPLLYDYWGQGTQVTVSS | high polyreactivity
24 | QVQLVESGGGLVQAGGSLRLSCAASGITFAGYAMRWYRQAPGKERELVASMTWGGGRTYYADSVKRRFTISRDNAKNTVYLQMNSLKPEDTAVYYCATRRRPQYNKYDYWGQGTQVTVSS | high polyreactivity
25 | QVQLVESGGGLVQAGGSLRLSCAASGITFARYAMGLYRQAPGKERELVAAISWSGGSTYYADSVKGRFTISRDNAKNTVYLQMNSLKPEDTAVYYCAAGGRVRRNKFDYWGQGTQVTVSS | high polyreactivity
26 | QVQLVESGGGLVQAGGSLRLSCAASGITFASNTMGCYIQAPGKERELVAAITRGDNTYYADSVKGRFTISRDNAKNTVYLQMNSLKAEDPAVYYCATEGYQIQYEHDYWGQGTQVTVSS | low polyreactivity
27 | QVQLVESGGGLVQAGGSLRLSCAASGITFASYAMGWYRQAPGKERELVAAISTRSGGTYYADSVKGRFTISRDNAKNTVYLQMNSLKPEETAVYYCAAYNVIYTRRMYYWGQGTQVTVSS | high polyreactivity
28 | QVQLVESGGGLVQAGGSLRLSCAASGITFATNAMGWYRQAPGKERELVAAISWSGGSTYYADSVKGRFTISRDNAKNTVYLQMNSLKPEDTAVYYCATGYSVWYDYWGQGTQVTLSS | low polyreactivity
29 | QVQLVESGGGLVQAGGSLRLSCAASGITFAWYAMGWYRQAPGKEREFVAAITGSGGRTYYADSVKGRFTISRDIAKNTVYLQMNSLKPEDTAVYYCATASSVSGARYDYCGQGTQVTVSS | high polyreactivity
30 | QVQLVESGGGLVQAGGSLRLSCAASGITFAYNAMGWYRQAPGKERELVARITSGGRTYYADSVKGRFTISRDNAKNTVYLQMKSLKPEDTAVYYCNAKEGSRYRKYDYWGPGTQVTVSS | low polyreactivity
31 | QVQLVESGGGLVQAGGSLRLSCAASGITFAYNTMGWYRQAPGKERELVAGISVSGASTYYADSVKGRFTISRDNAKNSVYLQMNSLKPEDTAVYYCAAPRWVANQYREYDYWGQGTQVTVSS | high polyreactivity
32 | QVQLVESGGGLVQAGGSLRLSCAASGITFAYYAMGWYRQAPGKERELVAAITRRGSSTYYADSVKGRFTISRDNAKNTVYLQMNSLKPEDTAVYYCAAVAYGRERYDYWGQGTQVTVSS | high polyreactivity
33 | QVQLVESGGGLVQAGGSLRLSCAASGITFAYYARGWYRQAPGKERELVAAITGDGGYTYYADSVKGRFTISRDNAKNTVYLQMNSLKPEDTAVYYCNAELSDYRYDWWDYDYWGQGTQVTVSS | high polyreactivity
34 | QVQLVESGGGLVQAGGSLRLSCAASGITFDGNAMGWYRQAPGKERELVAAITSGGSTYYADSVKGRFTISRDNAKNTVYLQMNSLKPEDTAVYYCAKEPPPVKGDYWGQGTQVTVSS | low polyreactivity
35 | QVQLVESGGGLVQAGGSLRLSCAASGITFDGYAMGWYRQAPGKERELVAAIRSSGGSTYYADSVKGRFTISRDNAKNTVYLQMNSLKPEDTAVYYCATDHAQKFRYRSPREYWGQGTQVTVSS | low polyreactivity
36 | QVQLVESGGGLVQAGGSLRLSCAASGITFDGYAMGWYRQAPGKESELVAGISWSGARSYYADSVKGRFTISRDNAKYTVYLHMNSLKPEDTAVYYCNKVSLRNHGGYDYWGQGTQVTVSS | high polyreactivity
37 | QVQLVESGGGLVQAGGSLRLSCAASGITFDKYAMGWYRQAPGKERELVAAISGSDGSTYYADSVKGRFTISRDNAKNTVYLQMNSLKPEDTAVYYCAAESEYAGTYEYDYWGQGTQVTVSS | low polyreactivity
38 | QVQLVESGGGLVQAGGSLRLSCAASGITFDLYAMGRYRQAPGKERELVAASTYYADSVKGRFTISRDNAKNTVYLQMNSLKPEDTAVYFCNTREPVTYDYWGQGTQVTVSS | high polyreactivity
39 | QVQLVESGGGLVQAGGSLRLSCAASGITFDLYDMGWYRQAPGKERELVAAITDADSTYYADSVKGRFTISRDNAKNTVYLQMNSLKPADTAVYYCAADFFYSVYSGHYDYWGQGTQVTVSS | low polyreactivity
40 | QVQLVESGGGLVQAGGSLRLSCAASGITFDRNVMGWYRKSPGKETELVAAISKSGGRTYYADSVKGRFTISRDIAKNTVYLQMNSLKTEDTAVYDCNADFYSRKSLHQYDYWGQGTQVTVSS | high polyreactivity
41 | QVQLVESGGGLVQAGGSLRLSCAASGITFDRYAMAWYRHAPGKERELVAAITSSGGRTYYADSVKGRFTISRDNAKNTVYLQMNSLKPEDTAVYYCNTPWQNRADSHRDYWGQGTQVTVSS | high polyreactivity

Reference: the nanobody polyreactivity screen of Harvey et al. (2022)
